Data published in patent publication US6521741 (FRANK KOENTGEN, dated 2003).

Molecular target: T1, streptavidin (UniProt P22629 37-163, limits assumed)
T1 construct: Immobilised on column material; also called streptavidin column; streptavidin matrix
Assay: streptavidin column pull-down, SDS gel
Description: FIG. 11 is a photographic representation of LHL purified via kappa-loaded streptavidin column as shown on a silver stained 20% w/v polyacrylamide SDS PHAST-gel. LHL= LHL alone plus streptavidin matrix; LHL-kappa=LHL purified on the kappa-loaded streptavidin matrix; kappa=kappa alone bound to streptavidin matrix.

T1 sequence (P22629 37-163 limits assumed): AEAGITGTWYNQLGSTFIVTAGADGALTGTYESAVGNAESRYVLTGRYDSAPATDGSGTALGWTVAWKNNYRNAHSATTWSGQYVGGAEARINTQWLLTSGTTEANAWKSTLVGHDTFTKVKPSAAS

B1: LHL (designed binder)
chain: APKDNTEEVTIKANLIFANGSTQTAEFKGTFEKATSEAYAYADTLKKDNGEYTVDVADKGYTLNIKFAGKEATNRNTDGSTDYGILQINSRWGGLTLKEEVTIKANLIFANGSTQTAEFKGTFEKATSEAYAYADTLKKDNGEYTVDVADKGYTLNIKFAG
notes: Expressed in E. coli from pASK75; LHL carries no strep-tag; also called growth factor LHL
Q: Does B1 bind?
A: no binding
